Reference: the supplement of paper PMC7125110
± gives the standard error. Fewer inactive variants are shown than the library holds.

B1: glmS ribozyme (parent)
chain: AUAAAAGCGCCAGAACUACAGAAAUGUAGUUGACGAGGAGGAGGUUUAUCGAAUUUUCGGCGGAUGCCUCCAAA

Legend:
Settings in all cases: with glucosamine-6-phosphate
glucosamine-6-phosphate [1] = variants of: B1; assay: self-cleavage kobs at 40 uM GlcN6P; higher = faster cleavage; RNA array
Procedure, shortened: (§1)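 E. coli RNA polymerase transcribed barcoded ribozyme variants in situ on sequenced MiSeq chips, which were tracked via a hybridised Cy3 probe at 37 °C. Tiles were imaged over ~14 h after glucosamine-6-phosphate (40 μM to 10 mM) in HEPES/KCl/Mg(OAc)2 buffer was flowed in. Normalised per-tile medians were fit to one- or two-exponential decays for kobs, and kcat and KM came from weighted Michaelis–Menten fits.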

glucosamine-6-phosphate [2] = variants of: B1; assay: self-cleavage kobs at 10000 uM GlcN6P; higher = faster cleavage; RNA array
Procedure, shortened: as §1

glucosamine-6-phosphate [3] = variants of: B1; assay: self-cleavage kobs at 160 uM GlcN6P; higher = faster cleavage; RNA array
Procedure, shortened: as §1

glucosamine-6-phosphate [4] = variants of: B1; assay: self-cleavage kobs at 640 uM GlcN6P; higher = faster cleavage; RNA array
Procedure, shortened: as §1

glucosamine-6-phosphate [5] = variants of: B1; assay: self-cleavage kobs at 2500 uM GlcN6P; higher = faster cleavage; RNA array
Procedure, shortened: as §1

Row | Variant | self-cleavage kobs at 40 uM GlcN6P (glucosamine-6-phosphate [1]) [s⁻¹] | self-cleavage kobs at 10000 uM GlcN6P (glucosamine-6-phosphate [2]) [s⁻¹] | self-cleavage kobs at 160 uM GlcN6P (glucosamine-6-phosphate [3]) [s⁻¹] | self-cleavage kobs at 640 uM GlcN6P (glucosamine-6-phosphate [4]) [s⁻¹] | self-cleavage kobs at 2500 uM GlcN6P (glucosamine-6-phosphate [5]) [s⁻¹]
1 | U54G U55A | 0.00109 ± 0.00018 | 0.0495 ± 0.015 | – | – | –
2 | G41A G63U | < 1e-05 | < 1e-05 | < 1e-05 | < 1e-05 | < 1e-05
3 | A12G C50G C58U | 0.000139 ± 4.9e-05 | 3.85e-05 ± 1.8e-05 | – | – | –
4 | U57C C61U | < 1e-05 | < 1e-05 | < 1e-05 | < 1e-05 | < 1e-05
5 | C8U C16G C50G | 0.000158 ± 3.8e-05 | 8.29e-05 ± 1.9e-05 | – | – | –
6 | G13A C61G C68A C70U | < 1e-05 | – | – | – | –
7 | G59C C61U G66U | < 1e-05 | < 1e-05 | – | – | –
8 | A42G C67U | 0.000328 ± 4.2e-05 | 0.00807 ± 0.0016 | 0.00136 ± 0.00031 | 0.00155 ± 0.00035 | 0.00245 ± 0.00057
9 | G43A G62C | < 1e-05 | < 1e-05 | – | – | < 1e-05
10 | A6U U49G | < 1e-05 | – | < 1e-05 | < 1e-05 | < 1e-05
11 | C16G G29U | 0.000398 ± 5.9e-05 | 0.0203 ± 0.0044 | 0.00129 ± 0.00034 | 0.00183 ± 0.00046 | 0.00758 ± 0.0015
12 | G7C C11U | < 1e-05 | < 1e-05 | < 1e-05 | < 1e-05 | < 1e-05
13 | U30G A52C U65G C67G C70U | < 1e-05 | – | – | – | –
14 | C8U A48G | < 1e-05 | < 1e-05 | < 1e-05 | – | < 1e-05
15 | G7U C8G G32C U56G C61A | < 1e-05 | – | – | – | < 1e-05
16 | G32A A33U A39G C61G A64C C68A | < 1e-05 | < 1e-05 | – | – | –
17 | U31C C34U G60U | < 1e-05 | < 1e-05 | – | – | –
18 | C10U A14G U55C A64G G66U | < 1e-05 | – | – | – | –
19 | G40A U55C C61A | < 1e-05 | – | – | – | –
20 | U31C G35A G37U | < 1e-05 | – | – | – | –
21 | G60U G63A | < 1e-05 | – | < 1e-05 | – | –
22 | G9C A33U | < 1e-05 | < 1e-05 | < 1e-05 | < 1e-05 | < 1e-05
23 | G9U A14C | < 1e-05 | – | < 1e-05 | < 1e-05 | –
